# B1: LINE1-mini (parent)
# chain: GGCAGAGCUCAACACAGCGUGGCAAAGUGGCUGUGGCUAGACUGCC
# Variants of: B1
# Experiment: self-cleavage, relative activity (ratio to wild type); higher = more cleavage; in vitro, sequencing; the parent is a self-cleaving ribozyme
row,Variant,self-cleavage
1,GACAGAGCUCAACACAGCUUGGCAAAGUGGCUGUGGCUAGACUGCC [G2A G19U],0.72
2,GACAGAGCUCAACACAGCAUGGCAAAGUGGCUGUGGCUAGACUGCC [G2A G19A],1.72
3,GACAGAGCUCAACACAGCCUGGCAAAGUGGCUGUGGCUAGACUGCC [G2A G19C],0.19
4,GACGGAGCUCAACACAGCGUGGCAAAGUGGCUGUGGCUAGACUGCC [G2A A4G],0.42
5,GACUGAGCUCAACACAGCGUGGCAAAGUGGCUGUGGCUAGACUGCC [G2A A4U],0.58
6,GACCGAGCUCAACACAGCGUGGCAAAGUGGCUGUGGCUAGACUGCC [G2A A4C],0.67
7,GACAGAGCUCAACAUAGCGUGGCAAAGUGGCUGUGGCUAGACUGCC [G2A C15U],0.5
8,GACAGAGCUCAACAAAGCGUGGCAAAGUGGCUGUGGCUAGACUGCC [G2A C15A],0.31
9,GACAGAGCUCAACAGAGCGUGGCAAAGUGGCUGUGGCUAGACUGCC [G2A C15G],0.05
10,GAAAGAGCUCAACACAGCGUGGCAAAGUGGCUGUGGCUAGACUGCC [G2A C3A],1.93
11,GAUAGAGCUCAACACAGCGUGGCAAAGUGGCUGUGGCUAGACUGCC [G2A C3U],0.9
12,GAGAGAGCUCAACACAGCGUGGCAAAGUGGCUGUGGCUAGACUGCC [G2A C3G],0.76
13,GACAGAGCUCAACACAGCGUGGCAAAGUGGCUGUGGGUAGACUGCC [G2A C37G],0.13
14,GACAGAGCUCAACACAGCGUGGCAAAGUGGCUGUGGAUAGACUGCC [G2A C37A],0.35
15,GACAGAGCUCAACACAGCGUGGCAAAGUGGCUGUGGUUAGACUGCC [G2A C37U],0.28
16,GACAGAGAUCAACACAGCGUGGCAAAGUGGCUGUGGCUAGACUGCC [G2A C8A],0.61
17,GACAGAGUUCAACACAGCGUGGCAAAGUGGCUGUGGCUAGACUGCC [G2A C8U],0.43
18,GACAGAGGUCAACACAGCGUGGCAAAGUGGCUGUGGCUAGACUGCC [G2A C8G],0.13
19,GACAGAGCUUAACACAGCGUGGCAAAGUGGCUGUGGCUAGACUGCC [G2A C10U],0.41

row,Variant,self-cleavage
1,GACAGAGCUGAACACAGCGUGGCAAAGUGGCUGUGGCUAGACUGCC [G2A C10G],0.11
2,GACAGAGCUAAACACAGCGUGGCAAAGUGGCUGUGGCUAGACUGCC [G2A C10A],0.07
3,UGCAGAGCUCAACACAGCGUGGCAAAGUGGCUGGGGCUAGACUGCC [G1U U34G],0.06
4,UGCAGAGCUCAACACAGCGUGGCAAAGUGGCUGCGGCUAGACUGCC [G1U U34C],0.06
5,UGCAGAGCUCAACACAGCGUGGCAAAGUGGCUGAGGCUAGACUGCC [G1U U34A],0.05
6,GACAGAGCUCAAUACAGCGUGGCAAAGUGGCUGUGGCUAGACUGCC [G2A C13U],0.32
7,GACAGAGCUCAAGACAGCGUGGCAAAGUGGCUGUGGCUAGACUGCC [G2A C13G],0.45
8,GACAGAGCUCAAAACAGCGUGGCAAAGUGGCUGUGGCUAGACUGCC [G2A C13A],0.36
9,GACAGAGCUCAACACAGCGUGGCACAGUGGCUGUGGCUAGACUGCC [G2A A25C],0.62
10,GACAGAGCUCAACACAGCGUGGCAUAGUGGCUGUGGCUAGACUGCC [G2A A25U],0.65
11,GACAGAGCUCAACACAGCGUGGCAGAGUGGCUGUGGCUAGACUGCC [G2A A25G],0.23
12,GACAGAGCUCAACACAGCGUGGCAAAUUGGCUGUGGCUAGACUGCC [G2A G27U],0.75
13,GACAGAGCUCAACACAGCGUGGCAAAAUGGCUGUGGCUAGACUGCC [G2A G27A],0.66
14,GACAGAGCUCAACACAGCGUGGCAAACUGGCUGUGGCUAGACUGCC [G2A G27C],0.72
15,GACAGAGCUCAACACAGCGUGGCUAAGUGGCUGUGGCUAGACUGCC [G2A A24U],0.86
16,GACAGAGCUCAACACAGCGUGGCCAAGUGGCUGUGGCUAGACUGCC [G2A A24C],1.16
17,GACAGAGCUCAACACAGCGUGGCGAAGUGGCUGUGGCUAGACUGCC [G2A A24G],1.04
18,GACAGAGCUCAGCACAGCGUGGCAAAGUGGCUGUGGCUAGACUGCC [G2A A12G],0.14
19,GACAGAGCUCAUCACAGCGUGGCAAAGUGGCUGUGGCUAGACUGCC [G2A A12U],0.41

row,Variant,self-cleavage
1,GACAGAGCUCACCACAGCGUGGCAAAGUGGCUGUGGCUAGACUGCC [G2A A12C],0.06
2,UGCAGAGCUCAACACAGCGUGGCAAAGGGGCUGUGGCUAGACUGCC [G1U U28G],0.2
3,UGCAGAGCUCAACACAGCGUGGCAAAGAGGCUGUGGCUAGACUGCC [G1U U28A],0.15
4,UGCAGAGCUCAACACAGCGUGGCAAAGCGGCUGUGGCUAGACUGCC [G1U U28C],0.24
5,GACAGAGCUCAACACCGCGUGGCAAAGUGGCUGUGGCUAGACUGCC [G2A A16C],0.16
6,GACAGAGCUCAACACGGCGUGGCAAAGUGGCUGUGGCUAGACUGCC [G2A A16G],0.26
7,GACAGAGCUCAACACUGCGUGGCAAAGUGGCUGUGGCUAGACUGCC [G2A A16U],0.33
8,GACAGAGCUCAACACAGCGUGGGAAAGUGGCUGUGGCUAGACUGCC [G2A C23G],0.4
9,GACAGAGCUCAACACAGCGUGGAAAAGUGGCUGUGGCUAGACUGCC [G2A C23A],1.04
10,GACAGAGCUCAACACAGCGUGGUAAAGUGGCUGUGGCUAGACUGCC [G2A C23U],2.33
11,GACAGAGCUCAACACAGCGUGGCAAAGUUGCUGUGGCUAGACUGCC [G2A G29U],0.9
12,GACAGAGCUCAACACAGCGUGGCAAAGUAGCUGUGGCUAGACUGCC [G2A G29A],0.61
13,GACAGAGCUCAACACAGCGUGGCAAAGUCGCUGUGGCUAGACUGCC [G2A G29C],0.65
14,GACAGAGCUCAACACAUCGUGGCAAAGUGGCUGUGGCUAGACUGCC [G2A G17U],0.19
15,GACAGAGCUCAACACACCGUGGCAAAGUGGCUGUGGCUAGACUGCC [G2A G17C],0.32
16,GACAGAGCUCAACACAACGUGGCAAAGUGGCUGUGGCUAGACUGCC [G2A G17A],0.2
17,GACAGAGCUCAACACAGCGUGGCAAAGUGGCUGUGGCUAGACUGGC [G2A C45G],0.75
18,GACAGAGCUCAACACAGCGUGGCAAAGUGGCUGUGGCUAGACUGAC [G2A C45A],1.08

# From the RNAGym collection of RNA variant scans (doi:10.7554/elife.90254)
